{"source": "patent US20240294611A1", "molecular_target": "SARS-CoV-2 spike (two-proline stabilized S-2P extracellular domain fused to foldon) (SARS-CoV-2) (UniProt P0DTC2)", "note": "“And” between values parts separate entries of the source, which are not always exact repeats. Equal entries are not always repeated.", "data": [{"substance": "antibody S309 (Pinto et al., 2020)", "values": [{"measurement": "Kd", "value": "7 nM and 20 nM"}]}]}
